The text below walks through data of patent US20230287598A1 (TAURUS BIOSCIENCES, published 2023).

The target of assay [1] is T1, CXCR1 (UniProt P25024 1-350, limits assumed).
T1 construct: whole, on cells; DiscoveRx PathHunter cell line; any reporter tag on the receptor is not described; also called CXCR1 receptor; CXCR1-U2OS
T1 sequence (looked up): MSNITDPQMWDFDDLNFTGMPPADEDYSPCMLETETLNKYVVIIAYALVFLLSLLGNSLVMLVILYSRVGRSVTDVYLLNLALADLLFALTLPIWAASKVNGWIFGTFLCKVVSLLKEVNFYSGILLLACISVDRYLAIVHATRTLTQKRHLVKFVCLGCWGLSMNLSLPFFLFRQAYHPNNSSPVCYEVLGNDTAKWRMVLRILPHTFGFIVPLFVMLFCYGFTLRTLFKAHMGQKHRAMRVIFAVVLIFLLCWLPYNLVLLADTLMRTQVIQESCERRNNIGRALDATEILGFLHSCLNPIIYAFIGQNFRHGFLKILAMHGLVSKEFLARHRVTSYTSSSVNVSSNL
Nature of the assay: flow cytometry, median fluorescence CXCR1-U2OS / parental U2OS.

The target in assay [2] is T1, CXCR1. The assay can be described thus: flow cytometry, CXCR1-U2OS / parental U2OS.
Assay [3] has as its target T1, CXCR1. Nature of the assay: flow cytometry on CXCR1-U2OS cells (parental U2OS: 5).
The next assay concerns the target Kv1.3 (human (T-cells from human blood donors), UniProt P22001 1-575). Nature of the assay: cell-based or functional assay.
Assay [4] concerns the target T2, CXCR1 (UniProt P25024 1-350, limits assumed).
T2 sequence (looked up): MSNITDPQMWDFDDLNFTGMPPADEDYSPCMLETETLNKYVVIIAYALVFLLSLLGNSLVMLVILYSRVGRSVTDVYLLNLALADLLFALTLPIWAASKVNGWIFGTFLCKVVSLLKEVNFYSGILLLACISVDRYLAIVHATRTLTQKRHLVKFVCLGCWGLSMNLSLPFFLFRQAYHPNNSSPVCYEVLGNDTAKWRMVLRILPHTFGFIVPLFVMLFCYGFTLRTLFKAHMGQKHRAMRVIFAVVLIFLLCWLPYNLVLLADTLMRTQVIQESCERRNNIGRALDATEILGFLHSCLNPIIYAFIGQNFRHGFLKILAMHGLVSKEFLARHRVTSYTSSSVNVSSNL
Nature of the assay: cell-based or functional assay.

For assay [5], the target named is T1, CXCR1. Nature of the assay: flow cytometry, supernatant at 5 nM IgG.
Assay [6] has as its target T1, CXCR1. The assay can be described thus: cell-based or functional assay. This is another data set of the same source.

Chain of Kv1.3 (P22001 whole entry): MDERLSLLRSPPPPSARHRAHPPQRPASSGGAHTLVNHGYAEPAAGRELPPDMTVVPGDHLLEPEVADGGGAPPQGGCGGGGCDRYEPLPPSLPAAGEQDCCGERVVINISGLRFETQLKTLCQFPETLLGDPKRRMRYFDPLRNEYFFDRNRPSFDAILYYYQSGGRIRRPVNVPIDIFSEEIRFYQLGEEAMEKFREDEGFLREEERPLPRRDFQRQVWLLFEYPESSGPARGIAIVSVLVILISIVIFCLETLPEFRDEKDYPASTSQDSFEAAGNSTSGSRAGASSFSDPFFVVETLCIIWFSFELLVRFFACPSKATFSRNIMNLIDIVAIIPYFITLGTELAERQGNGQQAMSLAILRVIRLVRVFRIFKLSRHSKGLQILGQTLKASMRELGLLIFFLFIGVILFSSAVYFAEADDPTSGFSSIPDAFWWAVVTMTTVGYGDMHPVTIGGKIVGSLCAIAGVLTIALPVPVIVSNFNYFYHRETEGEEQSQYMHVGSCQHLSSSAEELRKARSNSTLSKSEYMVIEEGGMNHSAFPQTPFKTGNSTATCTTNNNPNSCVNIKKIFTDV

B1: BLV1H12 IgG (antibody)
VH: QVQLRESGPSLVKPSQTLSLTCTASGFSLSDKAVGWVRQAPGKALEWLGSIDTGGNTGYNPGLKSRLSITKDNSKSQVSLSVSSVTTEDSATYYCTSVHQETKKYQSCPDGYRERSDCSNRPACGTSDCCRVSVFGNCLTTLPVSYSYTYNYEWHVDVWGQGLLVTVSS
light: not shown
notes: also called ULcowV
As to B1, in the assay with CXCR1 [1], the “Ratio of CXCR1/Parental” value is 1.9. Also, the “FACS CXCR1/Parental Ratio” value with CXCR1 [2] was 1.9. In the assay with CXCR1 [3], the “median AFU on CXCR1-U2OS” value worked out at 9 AFU.

B2: BLV1H12 GGS3:3 Moka (antibody)
VH: QVQLRESGPSLVKPSQTLSLTCTASGFSLSDKAVGWVRQAPGKALEWLGSIDTGGNTGYNPGLKSRLSITKDNSKSQVSLSVSSVTTEDSATYYCTSVHQETKKYQSGGSGGSGGSGINVKCSLPQQCIKPCKDAGMRFGKCMNKKCRCYSGGSGGSGGSSYTYNYEWHVDVWGQGLLVTVSSAS
light: not shown
For B2, in the assay with Kv1.3, the “EC50 (nM), inhibition of T-cell activation, IL-2 secretion, Donor 1” value is 14.4 nM; the “EC50 (nM), inhibition of T-cell activation, IL-2 secretion, Donor 2” value was 40.2 nM; the “EC50 (nM), inhibition of T-cell activation, TNFα secretion, Donor 1” value came out at 19.3 nM; the “EC50 (nM), inhibition of T-cell activation, TNFα secretion, Donor 2” value was 38.2 nM.

B3: BLV1H12 GLLV 3xG4S ShK (antibody)
VH: QVQLRESGPSLVKPSQTLSLTCTASGFSLSDKAVGWVRQAPGKALEWLGSIDTGGNTGYNPGLKSRLSITKDNSKSQVSLSVSSVTTEDSATYYCTSVHQETKKYQSGGGGSGGGGSGGGGSGGRSCIDTIPKSRCTAFQCKHSMKYRLSFCRKTCGTCGGGGSGGGGSGGGGSSYTYNYEWHVDVWGQGLLVTVSSAS
light: not shown
Consider B3, for which, in the assay with Kv1.3, the “EC50 (nM), inhibition of T-cell activation, IL-2 secretion, Donor 1” value worked out at 0.1 nM; the “EC50 (nM), inhibition of T-cell activation, IL-2 secretion, Donor 2” value turned out to be 0.03 nM; the “EC50 (nM), inhibition of T-cell activation, TNFα secretion, Donor 1” value was found to be 6.5 nM; the “EC50 (nM), inhibition of T-cell activation, TNFα secretion, Donor 2” value was 0.2 nM.

B4: VH4-34 MutE IL-8 5R6E31D32K50S (antibody, human IgG1)
VH: QVQLREWGAGLLKPSETLSLTCAVYGGSFSDKYWSWIRQPPGKGLEWIGSINHSGSTNYNPSLKSRVTISVDTSKNQFSLKLSSVTAADTAVYYCTSVHQETKKYQSPRSAKELRCQCIKTYSKPFHPKFIKELRVIESGPHCANTEIIVKLSDGRELCLDPKENWVQRVVEKFLKRAENSGSGSYTYNYEWHVDVWGQGLLVTVSS
light: QAVLNQPSSVSGSLGQKVTISCSGSSSNIGNNYVSWYQQLPGTAPRTLIYGDTKRPSGIPDRFSGSKSGTSATLGITGLQTGDEADYYCASAEDSSSNAVFGSGTTLTVLGQPKAAPSVTLFPPSSEELQANKATLVCLISDFYPGAVTVAWKADSSPVKAGVETTTPSKQSNNKYAASSYLSLTPEQWKSHRSYSCQVTHEGSTVEKTVAPTECS
With B4, in the assay with CXCR1 [4], the “CXCR1 activation, luminescence, 0.1 nM IL-8 domains” value is 4060 luminescence; the “CXCR1 activation, luminescence, 0.5 nM IL-8 domains” value worked out at 5300 luminescence; the “CXCR1 activation, luminescence, 2.2 nM IL-8 domains” value was 10300 luminescence; the “CXCR1 activation, luminescence, 9.9 nM IL-8 domains” value was 17100 luminescence. Besides, in the assay with CXCR1 [4], the “CXCR1 activation, luminescence, 44 nM IL-8 domains” value was determined as 23300 luminescence and the “CXCR1 activation, luminescence, 200 nM IL-8 domains” value stood at 22300 luminescence.

B5: VH4-34 MutF IL-8 5R6E CD1cow (antibody, human IgG1)
VH: QVQLREWGAGLLKPSETLSLTCTASGFSLSDKAVGWIRQPPGKGLEWIGEINHSGSTNYNPSLKSRVTISVDTSKNQFSLKLSSVTAADTAVYYCTSVHQETKKYQSPRSAKELRCQCIKTYSKPFHPKFIKELRVIESGPHCANTEIIVKLSDGRELCLDPKENWVQRVVEKFLKRAENSGSGSYTYNYEWHVDVWGQGLLVTVSS
light: QAVLNQPSSVSGSLGQKVTISCSGSSSNIGNNYVSWYQQLPGTAPRTLIYGDTKRPSGIPDRFSGSKSGTSATLGITGLQTGDEADYYCASAEDSSSNAVFGSGTTLTVLGQPKAAPSVTLFPPSSEELQANKATLVCLISDFYPGAVTVAWKADSSPVKAGVETTTPSKQSNNKYAASSYLSLTPEQWKSHRSYSCQVTHEGSTVEKTVAPTECS
As to B5, in the assay with CXCR1 [4], the “CXCR1 activation, luminescence, 0.1 nM IL-8 domains” value turned out to be 4180 luminescence; the “CXCR1 activation, luminescence, 0.5 nM IL-8 domains” value amounted to 6620 luminescence; the “CXCR1 activation, luminescence, 2.2 nM IL-8 domains” value was 13500 luminescence; the “CXCR1 activation, luminescence, 9.9 nM IL-8 domains” value is 21900 luminescence. Also, in the assay with CXCR1 [4], the “CXCR1 activation, luminescence, 44 nM IL-8 domains” value was 24000 luminescence and the “CXCR1 activation, luminescence, 200 nM IL-8 domains” value was 25000 luminescence.

B6: VH4-34+CDR3-IL8_CDR1-G31DY32K_CDR2-E50S / VL1-51 S2A, T5N, P8S, A12G, A13S, P14L, K46R, L47T, D51G, N52D, N53T IgG (antibody)
VH: QVQLQQWGAGLLKPSETLSLTCAVYGGSFSDKYWSWIRQPPGKGLEWIGSINHSGSTNYNPSLKSRVTISVDTSKNQFSLKLSSVTAADTAVYYCTSVHQETKKYQSPRSAKELRCQCIKTYSKPFHPKFIKELRVIESGPHCANTEIIVKLSDGRELCLDPKENWVQRVVEKFLKRAENSGSGSYTYNYEWHVDVWGQGLLVTVSSAS
light: QAVLNQPSSVSGSLGQKVTISCSGSSSNIGNNYVSWYQQLPGTAPRTLIYGDTKRPSGIPDRFSGSKSGTSATLGITGLQTGDEADYYCASAEDSSSNAVFGSGTTLTVLGQPKAAPSVTLFPPSSEELQANKATLVCLISDFYPGAVTVAWKADSSPVKAGVETTTPSKQSNNKYAASSYLSLTPEQWKSHRSYSCQVTHEGSTVEKTVAPTECS
notes: also called BID 37; VH4-34 MutC IL-8 31D32K50S
For the molecule B6, the “Specific Binding (CXCR1-Cell median AFU / Parental Cell median AFU)” value with CXCR1 [5] is 18. Further, in the assay with CXCR1 [6], the “CXCR1 activation, luminescence at 0.4 nM IL-8 domains” value came out at 5420; the “CXCR1 activation, luminescence at 1.6 nM IL-8 domains” value amounted to 5710; the “CXCR1 activation, luminescence at 6.25 nM IL-8 domains” value was 7160; the “CXCR1 activation, luminescence at 25 nM IL-8 domains” value amounted to 11200. The “CXCR1 activation, luminescence at 100 nM IL-8 domains” value in the assay with CXCR1 [6] turned out to be 15500.

B7: VH1-46+CDR3-IL8 IgG (antibody)
VH: QVQLVQSGAEVKKPGASVKVSCKASGYTFTSYYMHWVRQAPGQGLEWMGIINPSGGSTSYAQKFQGRVTMTRDTSTSTVYMELSSLRSEDTAVYYCTSVHQETKKYQSPRSAKELRCQCIKTYSKPFHPKFIKELRVIESGPHCANTEIIVKLSDGRELCLDPKENWVQRVVEKFLKRAENSGSGSYTYNYEWHVDVWGQGLLVTVSSAS
light: not shown
notes: also called VH1-46 BLVCDR3IL8
As for B7, the “median AFU on CXCR1-U2OS” value with CXCR1 [3] was 6 AFU.

B8: VH1-24+CDR3-IL8 IgG (antibody)
VH: QVQLVQSGAEVKKPGASVKVSCKVSGYTLTELSMHWVRQAPGKGLEWMGGFDPEDGETIYAQKFQGRVTMTEDTSTDTAYMELSSLRSEDTAVYYCTSVHQETKKYQSPRSAKELRCQCIKTYSKPFHPKFIKELRVIESGPHCANTEIIVKLSDGRELCLDPKENWVQRVVEKFLKRAENSGSGSYTYNYEWHVDVWGQGLLVTVSSAS
light: not shown
notes: also called VH1-24 BLVCDR3IL8
For B8, the “median AFU on CXCR1-U2OS” value with CXCR1 [3] came to 23 AFU.
